Source: article PMC3644067 (Nature Communications, 2013)

Target: T1, α4 (3–233) E206R (human, UniProt P78318 3-233, E206R)
T1 sequence (looked up): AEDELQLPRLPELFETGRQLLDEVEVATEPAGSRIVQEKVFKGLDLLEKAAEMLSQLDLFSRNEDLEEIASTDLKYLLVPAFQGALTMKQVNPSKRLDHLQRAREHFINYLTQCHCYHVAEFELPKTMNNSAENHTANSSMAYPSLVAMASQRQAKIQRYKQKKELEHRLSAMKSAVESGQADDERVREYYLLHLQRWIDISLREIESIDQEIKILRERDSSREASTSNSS
Assay: pull-down

B1: GST-tagged nPP2Ac (1–153) (domain or fragment, human, UniProt P67775 1-153, looked up)
chain: MDEKVFTKELDQWIEQLNECKQLSESQVKSLCEKAKEILTKESNVQEVRCPVTVCGDVHGQFHDLMELFRIGGKSPDTNYLFMGDYVDRGYYSVETVTLLVALKVRYRERITILRGNHESRQITQVYGFYDECLRKYGNANVWKYFTDLFDYL
binding result: binds
